Reference: paper PMC13544220, “Glycemic and bodyweight effects of GIPR coding variation reflect differences in surface expression and intrinsic functional impairment” (Science Advances, 2026)
Where a chain is given by its changes, count along the chain named. In names and notes the source's numbering stands.

B1: R190Q (protein)
chain: RAETGSKGQTAGELYQRWERYRRECQETLAAAEPPSGLACNGSFDMYVCWDYAAPNATARASCPWYLPWHHHVAAGFVLRQCGSDGQWGLWRDHTQCENPEKNEAFLDQRLILERLQVMYTVGYSLSLATLLLALLILSLFRRLHCTRNYIHINLFTSFMLRAAAILSQDRLLPRPGPYLGDQALALWNQALAACRTAQIVTQYCVGANYTWLLVEGVYLHSLLVLVGGSEEGHFRYYLLLGWGAPALFVIPWVIVRYLYENTQCWERNEVKAIWWIIRTPILMTILINFLIFIRILGILLSKLRTRQMRCRDYRLRLARSTLTLVPLLGVHEVVFAPVTEEQARGALRFAKLGFEIFLSSFQGFLVSVLYCFINKEVQSEIRRGWHHCRLRRSLGEEQRQLPERAFRALPSGSGPGEVPTSRGLSSGTLPGPGNEASRELESYC
modifications: left off: SNAP-tag, end not stated, kept
B2: E288G (protein)
chain: B1 chain with Q169R, E267G
B3: R101H (protein)
chain: B1 chain with R80H, Q169R

The molecules below were run on wild-type and variant SNAP-GIPR (assay: Surface SNAP-GIPR expression (SNAP-tag labelling) in AD293 cells). Conditions: Fig S3E; mean; column repeated, paired with cAMP 100 nM.
Type: cell-based, human
Method in brief: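 Surface GIPR is quantified from wide-field images after labelling intact transfected cells with a membrane-impermeant SNAP probe at 500 nM for 10 min at room temperature. Specific signal, corrected for nontransfected cells, is normalized to the experiment-wide average or to wild-type.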
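Throughout, for AD293 100 nM HTRF: ratio to experiment-wide average response.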
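Throughout, for AD293 100 pM HTRF: ratio to experiment-wide average response.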
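Throughout, for AD293 Surface: scaled to the experimental average.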
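Throughout, for Surface SNAP-GIPR expression: scaled to the experimental average.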

Molecule	AD293 Surface
B1	0.3804
B2	0.1748
B3	0.3592

Same assay, conditions: Fig S3E; mean; paired with cAMP 100 pM

Molecule	AD293 Surface
B1	0.3804
B2	0.1748
B3	0.3592

Same assay, conditions: sheet Fig 1C, replicate 1

Molecule	Surface SNAP-GIPR expression
B1	0.4051
B2	0.1869
B3	0.3042

Same assay, conditions: sheet Fig 1C, replicate 2

Molecule	Surface SNAP-GIPR expression
B1	0.3209
B2	0.267
B3	0.5275

Same assay, conditions: sheet Fig 1C, replicate 3

Molecule	Surface SNAP-GIPR expression
B1	0.5539
B2	0.08361
B3	0.05814

Same assay, conditions: sheet Fig 1C, replicate 4

Molecule	Surface SNAP-GIPR expression
B1	0.3598
B2	0.1519
B3	0.1831

Same assay, conditions: sheet Fig 1C, replicate 5

Molecule	Surface SNAP-GIPR expression
B1	0.3596
B2	0.1987
B3	0.7685

Same assay, conditions: sheet Fig 1C, replicate 6

Molecule	Surface SNAP-GIPR expression
B1	0.3496
B2	0.07439
B3	0.323

Same assay, conditions: sheet Fig 1C, replicate 7

Molecule	Surface SNAP-GIPR expression
B1	0.6994
B2	0.7465
B3	0.4744

Same assay, conditions: sheet Fig 1C, replicate 8

Molecule	Surface SNAP-GIPR expression
B1	0.559
B2	0.3261
B3	0.4381

Same assay, conditions: sheet Fig 1C, replicate 9

Molecule	Surface SNAP-GIPR expression
B1	0.4541
B2	0.1689
B3	0.4341

Same assay, conditions: sheet Fig 1C, replicate 10

Molecule	Surface SNAP-GIPR expression
B1	0.3587
B2	0.2273
B3	0.6442

Same assay, conditions: sheet Fig 1C, replicate 11

Molecule	Surface SNAP-GIPR expression
B1	0.3825
B2	0.2845
B3	0.4281

Same assay, conditions: sheet Fig 1C, replicate 12

Molecule	Surface SNAP-GIPR expression
B1	0.3815
B2	0.2606
B3	0.4464

Same assay, conditions: sheet Fig 1C, replicate 13

Molecule	Surface SNAP-GIPR expression
B1	0.0633
B2	0.07673
B3	0.04565

Same assay, conditions: sheet Fig 1C, replicate 14

Molecule	Surface SNAP-GIPR expression
B1	0.2489
B2	0.0817
B3	0.1907

Same assay, conditions: sheet Fig 1C, replicate 15

Molecule	Surface SNAP-GIPR expression
B1	0.3401
B2	0.1221
B3	0.4569

Same assay, conditions: sheet Fig 1C, replicate 16

Molecule	Surface SNAP-GIPR expression
B1	0.3428
B2	0.1487
B3	0.5164

Same assay, conditions: sheet Fig 1C, replicate 17

Molecule	Surface SNAP-GIPR expression
B1	0.3498
B2	0.2042
B3	0.5151

Same assay, conditions: sheet Fig 1C, replicate 18

Molecule	Surface SNAP-GIPR expression
B1	0.3062
B2	0.1937
B3	0.4251

Same assay, conditions: sheet Fig 1C, replicate 19

Molecule	Surface SNAP-GIPR expression
B1	0.4941
B2	0.1495
B3	0.384

Same assay, conditions: sheet Fig 1C, replicate 20

Molecule	Surface SNAP-GIPR expression
B1	0.4147
B2	0.1825
B3	0.5015

Same assay, conditions: sheet Fig 1C, replicate 21

Molecule	Surface SNAP-GIPR expression
B1	0.448
B2	0.2069
B3	0.5316

Same assay, conditions: sheet Fig 1C, replicate 22

Molecule	Surface SNAP-GIPR expression
B1	0.3466
B2	0.1788
B3	0.4149

Same assay, conditions: sheet Fig 1C, replicate 23

Molecule	Surface SNAP-GIPR expression
B1	0.3211
B2	0.167
B3	0.4406

Same assay, conditions: sheet Fig 1C, replicate 24

Molecule	Surface SNAP-GIPR expression
B1	0.3185
B2	0.1096
B3	0.4166

Same assay, conditions: sheet Fig 1C, replicate 25

Molecule	Surface SNAP-GIPR expression
B1	0.3831
B2	0.2053
B3	0.3346

Same assay, conditions: sheet Fig 1C, replicate 26

Molecule	Surface SNAP-GIPR expression
B1	0.4894
B2	0.1578
B3	0.3683

Same assay, conditions: sheet Fig 1C, replicate 27

Molecule	Surface SNAP-GIPR expression
B1	0.2936
B2	0.0991
B3	0.2116

Same assay, conditions: sheet Fig 1C, replicate 28

Molecule	Surface SNAP-GIPR expression
B1	0.2968
B2	0.1213
B3	0.1755

Same assay, conditions: sheet Fig 1C, replicate 29

Molecule	Surface SNAP-GIPR expression
B1	0.3488
B2	0.1325
B3	0.2709

Same assay, conditions: sheet Fig 1C, replicate 30

Molecule	Surface SNAP-GIPR expression
B1	0.3484
B2	0.1696
B3	0.3405

Same assay, conditions: sheet Fig 1C, replicate 31

Molecule	Surface SNAP-GIPR expression
B1	0.4442
B2	0.159
B3	0.1773

Same assay, conditions: sheet Fig 1C, replicate 32

Molecule	Surface SNAP-GIPR expression
B1	0.3528
B2	0.181
B3	0.3176

Same assay, conditions: sheet Fig 1C, replicate 33

Molecule	Surface SNAP-GIPR expression
B1	0.3442
B2	0.1299
B3	0.2814

Same assay, conditions: sheet Fig 1C, replicate 34

Molecule	Surface SNAP-GIPR expression
B1	0.4073
B2	0.1533
B3	0.3758

Same assay, conditions: sheet Fig 1C, replicate 35

Molecule	Surface SNAP-GIPR expression
B1	0.5179
B2	0.1527
B3	0.422

Same assay, conditions: sheet Fig 1C, replicate 36

Molecule	Surface SNAP-GIPR expression
B1	0.2819
B2	0.05767
B3	0.4366

Same assay, conditions: sheet Fig 1C, replicate 37

Molecule	Surface SNAP-GIPR expression
B1	0.3273
B2	0.09894
B3	0.2975

Same assay, conditions: sheet Fig 1C, replicate 38

Molecule	Surface SNAP-GIPR expression
B1	0.3893
B2	0.1179
B3	0.1954

Same assay, conditions: sheet Fig 1C, replicate 39

Molecule	Surface SNAP-GIPR expression
B1	0.3839
B2	0.124
B3	0.2342

Same assay, conditions: sheet Fig 1C, replicate 40

Molecule	Surface SNAP-GIPR expression
B1	0.3508
B2	0.1489
B3	0.2038

Same assay, conditions: sheet Fig 1C, replicate 41

Molecule	Surface SNAP-GIPR expression
B1	0.4598
B2	0.1584
B3	0.2137

Each molecule was assayed on wild-type and variant SNAP-GIPR (assay: Single-concentration GIP cAMP response by HTRF in AD293 cells). Conditions: Fig S3F; AD293, 100 pM, HTRF; mean.
Type: cell-based, human
Description: All variants were tested in parallel on each occasion to control for transfection efficiency differences between experiments.

Molecule	AD293 100 pM HTRF
B1	0.272
B2	0.007216
B3	-0.001017

Same assay, conditions: Fig S3F; AD293, 100 nM, HTRF; mean

Molecule	AD293 100 nM HTRF
B1	0.2205
B2	0.3648
B3	0.2474

These molecules were tested on wild-type and variant SNAP-GIPR (assay: cADDis cAMP imaging in AD293 cells, ensemble, expression-matched and per decile). Conditions: Fig S3F; AD293, 100 pM, cADDis; mean.
Type: cell-based, human
Method in brief: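 Transient SNAP-GIPR plus cADDis BacMam in AD293; 24 h; SNAP-Surface AF647 500 nM, 10 min RT; wide-field 10X imaging at 37°C in KRBH/6 mM glucose/0.1% BSA. Cells failing IBMX/FSK response criteria excluded.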

Molecule	AD293 100 pM cADDis
B1	-0.9408
B2	0.802
B3	6.465

Same assay, conditions: Fig S3F; AD293, 100 nM, cADDis; mean

Molecule	AD293 100 nM cADDis
B1	9.541
B2	24.23
B3	17.19

What follows are molecules tested on wild-type and variant SNAP-GIPR (assay: Constitutive and agonist-mediated internalization, reversible SNAP-tag labelling, AD293 cells). Conditions: Fig 4E, GIP 100 nM, Mean.
Type: cell-based, human
Parameters: key to Internalisation, Vehicle / Internalisation, +GIP / Internalisation, GIP-only: % internalization: residual fluorescence after Mesna vs pre-Mesna; Surface expression: unit not given here
Method in brief: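 % internalization = residual specific fluorescence after Mesna / pre-Mesna value. Imaging in TNE buffer pH 8.6; second image 10 min post-Mesna.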

Molecule	+GIP internalisation (100 nM)	GIP-specific internalisation (100 nM)
B1	0.1813	-0.007972
B2	0.06598	0.002144
B3	0.1328	0.01912

Same assay, conditions: Fig 4E, Mean

Molecule	Constitutive internalisation (100 nM)	Surface expression
B1	0.1892	0.3493
B2	0.06383	0.1099
B3	0.1137	0.2712

Same assay, conditions: Fig S4C; AD293; Mean

Molecule	Internalisation, +GIP	Internalisation, GIP-only	Internalisation, Vehicle
B1	51.2548	-3.738	54.9926
B2	59.0204	2.581	56.4393
B3	49.9522	4.89	45.062
